What was measured:
SK-MEL-28 cells = experiment: Cell viability tests (survival rate), previous experiment; type: cell-based, human; conditions: rounded values
Excerpt: (§1) ER stress also promotes mitochondrial dysfunction, Cytochrome c release, PARP cleavage, Ca+^2 mobilization and caspase activation in SK-MEL-28 and Mia-PaCa-2 cells, positively regulating CASP3. The survival rate of the previous experiment, calculated using cell viability tests, is herein summarized: Mia-PaCa-2 67%, SK-MEL-28 44%, SK-MEL-5 42%, non-tumoral human fibroblasts 100% (rounded values). These numbers indicate that part of the cells possibly survives through a positive unfolded protein response (UPR) and part dies. […] Furthermore, autophagy could also be evoked to recover a global tissue homeostasis, and, in this case, there is the signature of immunogenic cell death (ICD). It is believed that the ICD could explain this.

Mia-PaCa-2 cells = experiment: as above; type: cell-based, human; conditions: rounded values
Excerpt: as §1

B1: Amblyomin-X: recombinant Kunitz type protein identified in a cDNA library of Amblyomma sculptum tick salivary glands (protein)
chain: MRQLAVLALVIFTGMCVESQSANSKAVCNLPKLAGDETCSNKTEIRWYYNGTACEAFIFKGCGGNDNNFDRVDDCQRLCEEQTHFHFESPKLICFKVQDYWILNDIMKKNLTGISLKSEEEDADSGEID
modifications: Amblyomin-X
notes: recombinant Kunitz type protein identified in a cDNA library of Amblyomma sculptum tick salivary glands
survival rate (SK-MEL-28 cells): 44%
survival rate (Mia-PaCa-2 cells): 67%

— patent US12329806B2, “Compound for modulating rlr, tlr, oas and/or oncostatin m pathways, use thereof for preparing a medicine, composition, method for modulating said pathways and method of treatment” (Instituto Butantan, priority 2018, dated 2025)
